Test results reported in article PMC3836757.

Key:
[1] = target: RNA polymerase core enzyme;sigma 70 (RpoD) (Escherichia coli;Ehrlichia chaffeensis) (UniProt P0A7Z4+P0A8V2+P0A8T7+P0A800+Q2GG75); test: EMSA; conditions: 50 mM Tris-acetate pH 8.0, 50 mM K-acetate, 8.1 mM Mg-acetate, 27 mM NH4-acetate, 100 ug/ml BSA, 5% glycerol, 50 ug/ml poly(dI-dC), 20 fmol each probe and RNAP …
[2] = target: RNA polymerase core enzyme;sigma 32 (RpoH) (Escherichia coli;Ehrlichia chaffeensis) (UniProt P0A7Z4+P0A8V2+P0A8T7+P0A800+Q2GGG9); test: EMSA; conditions: 50 mM Tris-acetate pH 8.0, 50 mM K-acetate, 8.1 mM Mg-acetate, 27 mM NH4-acetate, 100 ug/ml BSA, 5% glycerol, 50 ug/ml poly(dI-dC), 20 fmol each probe and RNAP …

AAGCAAGTCTACTCATATTTTTATTAATTAAGTAGTAAAGTTAACTATAGATTTTATTAAAATTTTTATTCTAATCACTTTAAATATCAATTACTTTTGTTGTAAATTTGAAAGAAATTTTATATTCTAGACTTGCTTTTCTTTATTTCTTTCATTATTCTTAAATTTTTATTATCTTTTATAAAAGGTTTATTAACATG (double strand) [p28-Omp14 promoter probe]
binding [1]: binds | binding [2]: binds more weakly

ATTGCAGATTAATTAATAATGCTTTAAGTAATAACAAATAAATTTAGTTGACTATATGAACTAACCTAATATCCTAAATCTTGTTCAGTTATGTAAAATTAGGAGTTAAAATTA (double strand) [hup promoter probe]
binding [1]: binds | binding [2]: binds more weakly

TTCATAAATTTATGAACTTGTGTTAAATGGGGTTGTAATCTTATGATTTGGTTATTATATCTGTGATTATAGTTTTGATTTTTATGTAAGGGGGCTATTTATGGCTGTTATAGGTATAGATTTAGGTAC (double strand) [dnaK promoter probe]
binding [2]: binds

TAACTTACTTAAAAAATTAACTACTTAAATATCAACGATGTTTTCAGTATCAAGTCAATTGATTTTTTATGTGTTATGTAAACTGTTACAGAGTAATATAATATTTCTACTGGGTCCTATAAAGTTCTAACCTTGTAAACATTTGTGCAATATGTATTATAAAATTTATTGATTGATACTTGAAATTAGATTTCTTGATATTATATATGATCTTAGCTAGTAGTATCTGATGCTACTGATAATTTATTTTTTTATAGAGGTAG (double strand) [groE promoter probe]
binding [2]: binds

CTGACGTAATATATTAAATTTTCCTTACAAAAGTTACCGATATTTTATACAAAAATTTATATTCTGACTTGCTTTTATATGACACTTCTACTATTGTTAATTTATTTGTCACTATTAGGTTATATATGAATTACA (double strand) [p28-Omp19 promoter probe]
binding [1]: binds | binding [2]: binds more weakly
